Our source for the iScore values is patent US20090280138A1 (OXFORD BIOMEDICA UK, published 2009).

Assay in all cases: iTopia, multiparametric iScore
Assay [1] concerns the target T1, MHC class I allele A*0101 monomer (human, biotinylated, bound to streptavidin-coated plate).
T1 construct: placeholder peptide and b2M removed, then reconstituted with test peptide and fresh b2M; also called A1; HLA-A1
As for the experimental part:
(§1) The 9 mers were tested for Peptide Binding, Off Rate and Affinity using iTopia Epitope Discovery System in accordance with the manufacturer's instructions. Briefly, 96 well microtitre plates coated with MHC molecules representing different MHC alleles are used to identify candidate peptides. […] Determinations are performed in duplicate using an ELISA plate reader and included allele specific positive controls.
(§2) Finally, multiparametric analysis is performed on the results from these assays and an iScore is generated. The iScore represents a measure of the overall quality of peptide-MHC binding, enabling candidate peptides to be ranked in order of binding quality and allowing rational prioritisation of peptides for functional cellular follow-up studies.

Assay [2] addresses T2, MHC class I allele A*0201 monomer (human, biotinylated, bound to streptavidin-coated plate).
T2 construct: also called A2; HLA-A2
The method, then: as §1, §2

The target in assay [3] is T3, MHC class I allele A*0301 monomer (human, biotinylated, bound to streptavidin-coated plate).
T3 construct: also called A3; HLA-A3
As for the experimental part: as §1, §2

The target in assay [4] is T4, MHC class I allele B*0702 monomer (human, biotinylated, bound to streptavidin-coated plate).
T4 construct: also called B7; HLA-B7
As for the experimental part:
as §1, §2

On to LHLEDNALK [5T4 9-mer peptide 132], for which the iScore in assay [1], in assay [2], in assay [3] and in assay [4] was 0 each time.

LHNGTLAEL [5T4 9-mer peptide 137]: the iScore worked out at 0 in assay [1], 0.187 in assay [2], 0 in assay [3] and 0.026 in assay [4].

On to PWVCDCHMA [5T4 9-mer peptide 148], for which the iScore in assay [1], in assay [2], in assay [3] and in assay [4] was 0 throughout.

With KVLHNGTLA [5T4 9-mer peptide 136], the iScore in assay [1] came out at 0; in assay [2], 0.15; in assay [3], 0; in assay [4], 0.

Take TLAELQGLP [5T4 9-mer peptide 139]: the iScore is 0 in assay [1], 0.083 in assay [2], 0 in assay [3] and 0 in assay [4].

As for RNLTHLESL [5T4 9-mer peptide 128], the iScore turned out to be 0 in assay [1], 0.072 in assay [2], 0 in assay [3] and 0 in assay [4].

Consider ESLHLEDNA [5T4 9-mer peptide 131], for which the iScore in assay [1], in assay [2], in assay [3] and in assay [4] was 0 throughout.

Turning to IRVFLDNNP [5T4 9-mer peptide 144], the iScore in assay [1], in assay [2], in assay [3] and in assay [4] was 0 throughout.

As for ALKVLHNGT [5T4 9-mer peptide 135], the iScore is 0 in assay [1], 0.104 in assay [2], 0 in assay [3] and 0 in assay [4].

For LDNNPWVCD [5T4 9-mer peptide 146], the iScore in assay [1], in assay [2], in assay [3] and in assay [4] was 0 each time.

In the case of LQGLPHIRV [5T4 9-mer peptide 141], the iScore was determined as 0 in assay [1], 0.2 in assay [2], 0 in assay [3] and 0 in assay [4].

Take VSLTYVSFR [5T4 9-mer peptide 124]: the iScore in assay [1] amounted to 0; in assay [2], 0; in assay [3], 0.025; in assay [4], 0.

Turning to DNALKVLHN [5T4 9-mer peptide 134], the iScore in assay [1], in assay [2], in assay [3] and in assay [4] was 0 in each case.

As to SLVSLTYVS [5T4 9-mer peptide 123], the iScore in assay [1] is 0; in assay [2], 0.206; in assay [3], 0; in assay [4], 0.

With TWLKETEVV [5T4 9-mer peptide 154], the iScore amounted to 0 in assay [1], 0.184 in assay [2], 0 in assay [3] and 0 in assay [4].

In the case of ADMVTWLKE [5T4 9-mer peptide 152], the iScore in assay [1], in assay [2], in assay [3] and in assay [4] was 0 each time.

With LEDNALKVL [5T4 9-mer peptide 133], the iScore turned out to be 0 in assay [1], 0.122 in assay [2], 0 in assay [3] and 0 in assay [4].

Consider AELQGLPHI [5T4 9-mer peptide 140], for which the iScore in assay [1], in assay [2], in assay [3] and in assay [4] was 0 each time.

For the molecule HLESLHLED (also called HLESLHLED) [5T4 9-mer peptide 130], the iScore in assay [1], in assay [2], in assay [3] and in assay [4] was 0 in each case.

As for NGTLAELQG [5T4 9-mer peptide 138], the iScore in assay [1], in assay [2], in assay [3] and in assay [4] was 0 throughout.

As for VCDCHMADM [5T4 9-mer peptide 149], the iScore is 0 in assay [1], 0.061 in assay [2], 0 in assay [3] and 0 in assay [4].

As to PHIRVFLDN [5T4 9-mer peptide 143], the iScore in assay [1], in assay [2], in assay [3] and in assay [4] was 0 throughout.

Consider MVTWLKETE [5T4 9-mer peptide 153], for which the iScore in assay [1] was found to be 0; in assay [2], 0.051; in assay [3], 0; in assay [4], 0.

With SFRNLTHLE [5T4 9-mer peptide 127], the iScore in assay [1], in assay [2], in assay [3] and in assay [4] was 0 throughout.

As to LTHLESLHL [5T4 9-mer peptide 129], the iScore in assay [1] was 0; in assay [2] it was 0.143; in assay [3], 0; in assay [4], 0.

NNPWVCDCH [5T4 9-mer peptide 147]: the iScore is 0 in assay [1], 0 in assay [2], 0.051 in assay [3] and 0 in assay [4].

On to VFLDNNPWV [5T4 9-mer peptide 145], for which the iScore in assay [1] was found to be 0; in assay [2], 0.239; in assay [3], 0; in assay [4], 0.

Turning to DCHMADMVT [5T4 9-mer peptide 150], the iScore in assay [1], in assay [2], in assay [3] and in assay [4] was 0 in each case.
